Earlier results in patent US20010028895A1, “Methods of treating alzheimer's disease” (priority 2000, published 2001).

What was measured:
[1] = among the eight 22-mer domains of apo A-I
[2] = among the eight 22-mer domains of apo A-I; remark: listed apart in the source
[3] = among the eight 22-mer domains of apo A-I; remark: listed apart in the source
[4] = among the eight 22-mer domains of apo A-I; remark: listed apart in the source

Row | Substance | partition coefficient into POPC liposomes [1] | reduction in the enthalpy of the gel-to-liquid crystalline phase transition of DMPC MLVs [2] | clarifying multilamellar vesicles of DMPC [3] | exclusion pressure for penetration into egg yolk phosphatidylcholine monolayer [4]
1 | 44-65: synthesized N-terminal 22-mer amphipathic domain of human apo A-I, residues 44-65 (LKLLDNWDSVTSTFSKLREQLG; UniProt P02647 68-89, looked up, fragment) | highest partition coefficient | greatest reduction | effective | highest exclusion pressure
2 | 220-241: synthesized C-terminal 22-mer amphipathic domain of human apo A-I, residues 220-241 (PVLESFKVSFLSALEEYTKKLN; UniProt P02647 244-265, looked up, fragment) | highest partition coefficient | greatest reduction | effective | highest exclusion pressure
